B1: glmS ribozyme (parent)
chain: AUAAAAGCGCCAGAACUACAGAAAUGUAGUUGACGAGGAGGAGGUUUAUCGAAUUUUCGGCGGAUGCCUCCAAA

± gives the standard error. This sample holds only a part of the variants without activity. A value given as a limit tells only on which side of the number the result lay.

Variants of B1 are the subject of the data set. As to the kind of experiment: self-cleavage kobs at 10000 uM GlcN6P; higher = faster cleavage; RNA array. The following applies: with glucosamine-6-phosphate. In short, it runs like this: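 Tiles of sequenced MiSeq chips were imaged over ~14 h at 37 °C. On them, barcoded ribozyme variants had been transcribed in situ by E. coli RNA polymerase and were tracked via a hybridised Cy3 probe while glucosamine-6-phosphate (40 μM to 10 mM) in HEPES/KCl/Mg(OAc)2 buffer flowed in. Per-tile medians, normalised to baseline and to non-cleaving reference variants, were fit to one- or two-exponential decays for kobs, and weighted Michaelis–Menten fits gave kcat and KM.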
AUAAAAGCGCCAGAACUACAGAAAUGUAGUUGACGAGGACGAGGUUUAUCGAAUUUUCCGCGGAGGCCUCCAAA [G40C G59C U65G]: the “self-cleavage kobs at 10000 uM GlcN6P” value is under 1e-05 s⁻¹.

Consider AUAAAAGCGCUAGAACUACAGAAAUGUAGUUUACUAGGAGGAGGUUUAUCGAAUUUUCGGCGGUUGCCUCCAAA [C11U G32U G35U A64U], for which the “self-cleavage kobs at 10000 uM GlcN6P” value was under 1e-05 s⁻¹.

Consider AUAAAAGAGCUAGAACUACAGAAAUGUAGUUGAUGAGGUGGAGGUUUAUCGAAUUUUAGGCGGAUGUCUCCAAA [C8A C11U C34U A39U C58A C67U], for which the “self-cleavage kobs at 10000 uM GlcN6P” value is under 1e-05 s⁻¹.

Consider AUAAAAGCGCCAGAACUACAGAAAUGUAGUUGACGAGGAGGAGGUUUAUGGAAUUUUCGGCCGAUGCCUACAAA [C50G G62C C70A], for which the “self-cleavage kobs at 10000 uM GlcN6P” value was 0.000153 ± 4.6e-05 s⁻¹.

For AUAAAAGCUCCAGAACUACAGAAAUGUAGCUAACGAGGAGGAGGUUUAUCGAAUUUUCGGCGGAUGCCUCCAAA [G9U U30C G32A], the “self-cleavage kobs at 10000 uM GlcN6P” value was under 1e-05 s⁻¹.

AUAAAAGCGUCAAAACUACAGAAAUGUAGUUGACGAGGAUGAGGUUUAUCGAAUUUUCGGCGGAUGCCUCCAAA [C10U G13A G40U]: the “self-cleavage kobs at 10000 uM GlcN6P” value is under 1e-05 s⁻¹.

With AUAAAAACGCCAGAACUACAGAAAUGUAGUUGACGAGGAGAAGGUUUAUCGACUUUUCGGCGGAUGCCUCCAAA [G7A G41A A53C], the “self-cleavage kobs at 10000 uM GlcN6P” value was under 1e-05 s⁻¹.

As for AUAAAAGCGCUAGAACUACAGAAAUGUAGUUGACGAGGAGGAGGUUUAUCGGAUUUUCGGCGCAUGCCGCCAAA [C11U A52G G63C U69G], the “self-cleavage kobs at 10000 uM GlcN6P” value amounted to 8.28e-05 ± 1.9e-05 s⁻¹.

In the case of AUAAAAGCGCCAGAACUACAGAAAUGUAUUUGACGAAGAGGAGGUUUAUCGAAUUUUCGGCGGAUGCCUCUAAA [G29U G37A C71U], the “self-cleavage kobs at 10000 uM GlcN6P” value amounted to 0.000169 ± 4e-05 s⁻¹.

Take AUAAAAGCGCCAGAACUACAGAAAUGUAAUUGACGAGGAGGAGGUUUAUCGAAUUUUUGGCGGAUGCCUUCAAA [G29A C58U C70U]: the “self-cleavage kobs at 10000 uM GlcN6P” value is 5.99e-05 ± 1.7e-05 s⁻¹.

AUAAAAGCGCCAGAGCUACAGAAAUGUAGUUCACGAGGAGGAGGUUUAUCGAAUUUUCCGCGGAUGCCUCCAAA [A15G G32C G59C]: the “self-cleavage kobs at 10000 uM GlcN6P” value was under 1e-05 s⁻¹.

On to AUAAAAGCGCCAGAACUACAGAAAUGUAGUUGACGAGGAGGAGGUUUAUCGAAUUUUUCGGCGGAUCCUCCAAA [C58U G59C C61G G62C A64G U65A G66U], for which the “self-cleavage kobs at 10000 uM GlcN6P” value is under 1e-05 s⁻¹.

On to AUAAAAGCGCCAGAACUACAGAAAUGUAGUUGACGAGGAAGAGUUUGAUCGAAUUUUCGUUGGAUGCUUCCAAA [G40A G44U U47G G60U C61U C68U], for which the “self-cleavage kobs at 10000 uM GlcN6P” value is under 1e-05 s⁻¹.

In the case of AUAAAUGCGCCAGAACUACAGAAAUGUAGUUGACGAGGAGGAGGUUUAUGGACUUUUCGGCGGAUGCCUCAAAA [A6U C50G A53C C71A], the “self-cleavage kobs at 10000 uM GlcN6P” value was found to be 4.1e-05 ± 2e-05 s⁻¹.

On to AUAAAAGCGCCAGAACUACAGAAAUGUAGUGGACGAGGAUGAGGUUUAUCGAAUUUUCGGCGGAUGACUCCAAA [U31G G40U C67A], for which the “self-cleavage kobs at 10000 uM GlcN6P” value worked out at 6.16e-05 ± 1.3e-05 s⁻¹.

Turning to AUAAAAGCGCCAGAACUACAGAAAUGUAGUUGACGAGGAGGAGGUUUAUGGAAGUUUCGGCGGAGGCCUCCAAA [C50G U54G U65G], the “self-cleavage kobs at 10000 uM GlcN6P” value is under 1e-05 s⁻¹.

As for AUAAAAGAGCCAGAACUACAGAAAUGUAGUUGACGAGGUGGAGGUUGAUCGAAUUUUCGGCGGAUGCCUCCAAA [C8A A39U U47G], the “self-cleavage kobs at 10000 uM GlcN6P” value was under 1e-05 s⁻¹.

As to AUAAAAGCGCCAGAACUACAGAAAUGUAGUUGACGAGGAGGAGGUUUAUUGAAUUUUCGGCGGCUGCCUCAAAA [C50U A64C C71A], the “self-cleavage kobs at 10000 uM GlcN6P” value was under 1e-05 s⁻¹.

Take AUAAAAGCGCCAGAACUACAGAAAUGUAGUCGACGAGGAGUAGGUUUAUCGAGUUUUCGGCGGAUGCCUCCAAA [U31C G41U A53G]: the “self-cleavage kobs at 10000 uM GlcN6P” value was 0.000299 ± 8.8e-05 s⁻¹.

On to AUAAAAGCGCUAGAGCUACAGAAAUGUAGUUGACGAGGAGGAGGUUUAUCGGAUUUUCGGCGGAUGCCUCCAAA [C11U A15G A52G], for which the “self-cleavage kobs at 10000 uM GlcN6P” value is 0.0001 ± 2.4e-05 s⁻¹.

In the case of AUAAAAGCGCCAGAACUACAGAAAUGUAGUUGACUAGGAGGAGGUUAAUCGAAUUUUCGGUGGAUGCCUCCAAA [G35U U47A C61U], the “self-cleavage kobs at 10000 uM GlcN6P” value was under 1e-05 s⁻¹.

With AUAAAAGCGCCGGAACUACAGAAAUGUAGUUGACGAGGAGUAGGUUUAUCGAAUUUUCGGCGGAUGCCUUCAAA [A12G G41U C70U], the “self-cleavage kobs at 10000 uM GlcN6P” value stood at 0.00122 ± 0.00022 s⁻¹.

In the case of AUAAAAGCGCCAGAACUACAGAAAUGUAGUUGAUGAGGAGGAGUUUUAUCGAAAUUUCGGCGCAUGCCUCCAAA [C34U G44U U54A G63C], the “self-cleavage kobs at 10000 uM GlcN6P” value was under 1e-05 s⁻¹.

As for AUAAAAGCGCCAGAACUACAGAAAUGUAGUUGACGAGGAGGGGGUUUAUCGAAUUUUGGGCGGAUGCCCCCAAA [A42G C58G U69C], the “self-cleavage kobs at 10000 uM GlcN6P” value stood at 0.000133 ± 3.8e-05 s⁻¹.

Consider AUAAAAGUGCCAGAACUACAGAAAUGUAGUUGACGAGGAGGAGGUUUAUCUAAUUUUCGGCGGAUGCCACCAAA [C8U G51U U69A], for which the “self-cleavage kobs at 10000 uM GlcN6P” value came out at 0.000401 ± 0.00014 s⁻¹.

As for AUAAAAGCGCCACAACUACAGAAAUGUAGUUGACGAGGAGGAGGUUUAUCGAAUUUUCGGCGGAAGCCUCCAAA [G13C U65A], the “self-cleavage kobs at 10000 uM GlcN6P” value was under 1e-05 s⁻¹.

On to AUAAAAGCGCCAGGACUACAGAAAUGUAGUUGACGAGGAGGAGGUUAAUCGAAUUUUCUGCGGAUGCCUUCAAA [A14G U47A G59U C70U], for which the “self-cleavage kobs at 10000 uM GlcN6P” value is 9.51e-05 ± 1.8e-05 s⁻¹.

Regarding AUAAAAGCGCCAGAACUACAGAAAUGUAGUUGACGAGGAGGAGGUUUAUCGAAUUUUCGGCGGGUGCCCCCAAA [A64G U69C], the “self-cleavage kobs at 10000 uM GlcN6P” value was 0.000688 ± 0.00018 s⁻¹.

Consider AUAAAAGCGCCAGAACUACAGAAAUGUAGUUGACGACGAGGAGGAUUAUCGAACUUUCGGCGCAUGCCUCCAAA [G37C U45A U54C G63C], for which the “self-cleavage kobs at 10000 uM GlcN6P” value was under 1e-05 s⁻¹.

For AUAAAAGCGCCAGAACUACAGAAAUGUAGUUGACGAGGAGGAGGUUUAUCGAAUUUUCGGCGGUUCCCUCCAAA [A64U G66C], the “self-cleavage kobs at 10000 uM GlcN6P” value was 4.03e-05 ± 1.2e-05 s⁻¹.

For AUAAAAGCGGCAGCACUACAGAAAUGUAGUUGACGAGGAGGAGGUUUAUCGAAUUUUCGGCGUAUGCCUCCAAA [C10G A14C G63U], the “self-cleavage kobs at 10000 uM GlcN6P” value was under 1e-05 s⁻¹.

As to AUAAAAGCGGCAGAACUACAGAAAUGUAGUUGACGAGGAUGAGGUCUAUCGAAUUUUCGGCGGAUGCCUCUAAA [C10G G40U U46C C71U], the “self-cleavage kobs at 10000 uM GlcN6P” value is under 1e-05 s⁻¹.

For the variant AUAAAAGCGCCAGAACUACAGAAAUGUAGUUGACGAGGCGGAGGUUCAUCGAAUUUUCGGCGGAUGCCUUCAAA [A39C U47C C70U], the “self-cleavage kobs at 10000 uM GlcN6P” value was 0.000412 ± 0.0001 s⁻¹.

Regarding AUAAAAGCGCCAGAACUACAGAAAUGUAGUUGACGAGGAGGAGGCUUAUGGAAAUUUCGGCGGAUGCCUCCAAA [U45C C50G U54A], the “self-cleavage kobs at 10000 uM GlcN6P” value was under 1e-05 s⁻¹.

Consider AUAAAAGCGCCAGAAGUACAGAAAUGUAGUUGACGACGAGGAGGUUUAUCGAAUUUUCGGCAGAUGCCUCCAAA [C16G G37C G62A], for which the “self-cleavage kobs at 10000 uM GlcN6P” value is under 1e-05 s⁻¹.

With AUAAAAGCGCCAGAACUACAGAAAUGUAGUUGACGAGGAGGAGGUUUGUCGAAUUUUCGGCCGAUGCCUGCAAA [A48G G62C C70G], the “self-cleavage kobs at 10000 uM GlcN6P” value was under 1e-05 s⁻¹.

For the variant AUAAAAGCGCGGGAACUACAGAAAUGUAGUUCACGAGGAGGAGGUUUAUCGAAUUUCCGGCGGAUGCCUCCAAA [C11G A12G G32C U57C], the “self-cleavage kobs at 10000 uM GlcN6P” value was under 1e-05 s⁻¹.

The values above are taken from the supplement of paper PMC7125110.
